The labels stand for the following.
B1: ADP140 (protein)
chain: MELRVLLCWASLAAALEETLLNTKLETADLKWVTFPQVDGQWEELSGLDEEQHSVRTYEVCDVQRAPGQAHWLRTGWVPRRGAVHVYATLRFTMLECLSLPRAGRSCKETFTVFYYESDADTATALTPAWMENPYIKVDTVAAEHLTRKRPGAEATGKVNVKTLRLGPLSKAGFYLAFQDQGACMALLSLHLFYKKCAQLTVNLTRFPETVPRELVVPVAGSCVVDAVPAPGPSPSLYCREDGQWAEQPVTGCSCAPGFEAAEGNTKCRACAQGTFKPLSGEGSCQPCPANSHSNTIGSAVCQCRVGYFRARTDPRGAPCTTPPSAPRSVVSRLNGSSLHLEWSAPLESGGREDLTYALRCRECRPGGSCAPCGGDLTFDPGPRDLVEPWVVVRGLRPDFTYTFEVTALNGVSSLATGPVPFEPVNVTTDREVPPAVSDIRVTRSSPSSLSLAWAVPRAPSGAVLDYEVKYHEKGAEGPSSVRFLKTSENRAELRGLKRGASYLVQVRARSEAGYGPFGQEHHSQTQLDESEGWREQLAL
modifications: bait human Fc-tagged dimer
B2: ADP278 (protein)
chain: IQAKLIFLNFVRVPYFIDLKKPQDQGLNHTCNYYLQPEEDVTIGVWHTVPAVWWKNAQGKDQMWYEDALASSHPIILYLHGNAGTRGGDHRVELYKVLSSLGYHVVTFDYRGWGDSVGTPSERGMTYDALHVFDWIKARSGDNPVYIWGHSLGTGVATNLVRRLCERETPPDALILESPFTNIREEAKSHPFSVIYRYFPGFDWFFLDPITSSGIKFANDENVKHISCPLLILHAEDDPVVPFQLGRKLYSIAAPARSFRDFKVQFVPFHSDLGYRHKYIYKSPELPRILREFLGKSEPEHQH
modifications: bait human Fc-tagged dimer
B3: ADP381 (protein)
chain: SQEKNKNANSSPVASTTPSASATTNPASATTLDQSKAWNRYRLPNTLKPDSYRVTLRPYLTPNDRGLYVFKGSSTVRFTCKEATDVIIIHSKKLNYTLSQGHRVVLRGVGGSQPPDIDKTELVEPTEYLVVHLKGSLVKDSQYEMDSEFEGELADDLAGFYRSEYMEGNVRKVVATTQMQAADARKSFPCFDEPAMKAEFNITLIHPKDLTALSNMLPKGPSTPLPEDPNWNVTEFHTTPKMSTYLLAFIVSEFDYVEKQASNGVLIRIWARPSAIAAGHGDYALNVTGPILNFFAGHYDTPYPLPKSDQIGLPDFNAGAMENWGLVTYRENSLLFDPLSSSSSNKERVVTVIAHELAHQWFGNLVTIEWWNDLWLNEGFASYVEYLGADYAEPTWNLKDLMVLNDVYRVMAVDALASSHPLSTPASEINTPAQISELFDAISYSKGASVLRMLSSFLSEDVFKQGLASYLHTFAYQNTIYLNLWDHLQEAVNNRSIQLPTTVRDIMNRWTLQMGFPVITVDTSTGTLSQEHFLLDPDSNVTRPSEFNYVWIVPITSIRDGRQQQDYWLIDVRAQNDLFSTSGNEWVLLNLNVTGYYRVNYDEENWRKIQTQLQRDHSAIPVINRAQIINDAFNLASAHKVPVTLALNNTLFLIEERQYMPWEAALSSLSYFKLMFDRSEVYGPMKNYLKKQVTPLFIHFRNNTNNWREIPENLMDQYSEVNAISTACSNGVPECEEMVSGLFKQWMENPNNNPIHPNLRSTVYCNAIAQGGEEEWDFAWEQFRNATLVNEADKLRAALACSKELWILNRYLSYTLNPDLIRKQDATSTIISITNNVIGQGLVWDFVQSNWKKLFNDYGGGSFSFSNLIQAVTRRFSTEYELQQLEQFKKDNEETGFGSGTRALEQALEKTKANIKWVKENKEVVLQWFTENSK
modifications: bait human Fc-tagged dimer
B4: ADP355 (protein)
chain: MALLLLHPAFQSCLLLTLLGLWRTTPEAHASSLGAPAISAASFLQDLIHRYGEGDSLTLQQLKALLNHLDVGVGRGNVTQHVQGHRNLSTCFSSGDLFTAHNFSEQSRIGSSELQEFCPTILQQLDSRACTSENQENEENEQTEEGRPSAVEVWGYG
modifications: bait human Fc-tagged dimer

Sequence of Circumsporozoite protein (CSP) (Q7K740 19-374): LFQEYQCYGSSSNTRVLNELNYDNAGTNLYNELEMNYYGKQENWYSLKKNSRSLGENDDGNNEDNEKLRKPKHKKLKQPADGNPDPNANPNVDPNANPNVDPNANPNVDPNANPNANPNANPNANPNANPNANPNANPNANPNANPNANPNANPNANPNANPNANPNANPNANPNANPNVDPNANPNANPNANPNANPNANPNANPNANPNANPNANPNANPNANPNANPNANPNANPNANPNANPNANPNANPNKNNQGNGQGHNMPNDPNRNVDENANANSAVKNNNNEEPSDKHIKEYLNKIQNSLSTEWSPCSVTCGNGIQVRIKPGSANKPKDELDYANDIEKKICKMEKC

This assay has as its target Circumsporozoite protein (CSP) (Plasmodium falciparum (isolate 3D7), UniProt Q7K740). Put plainly: AVEXIS screen signal:noise (double-corrected).
Consider B1, for which the binding score amounted to 1.91.
Turning to B2, the binding score came to 0.76.
In the case of B3, the binding score was found to be 0.803.
As for B4, the binding score was determined as 0.935.
